Results published in patent US9598481B2 (priority 2012, dated 2017).
Numbering of substitutions follows the chain as printed. “And” between values parts separate entries of the source, which are not always exact repeats. Equal values may be shown once.

Experiments:
[1] = system: H5N1 A/Vietnam/1203/04 influenza A virus; format: in vivo, ferrets (Mustela putorius furo)
[2] = system: Group2 influenza A virus strains; format: cell-based
[3] = system: Group1 influenza A virus strains; format: cell-based
[4] = system: hemagglutinin H3 from A/HK/8/1968; format: binding, influenza A virus
[5] = system: hemagglutinin H1 from A/NWS/1933; format: binding, influenza A virus
[6] = system: H3N2 A/Port Chalmers/1/1973; format: cell-based, influenza A virus; conditions: read-out: in vitro IC50
[7] = system: H3N2 A/Hong Kong/1/1968; set-up: species or system DBA/2J mice; conditions: mouse
[8] = system: HIV pseudotype virus bearing hemagglutinin H5 from H5N1/Vietnam/1203/2004; format: cell-based
[9] = system: H3N2 A/Port Chalmers/1/1973; set-up: species or system DBA/2J mice; conditions: mouse, in vivo
[10] = system: H3N2 A/Aichi/2/1968; format: cell-based, influenza A virus; conditions: read-out: in vitro IC50
[11] = system: H3N2 A/Aichi/2/1968; set-up: species or system DBA/2J mice; conditions: mouse, in vivo
[12] = read-out: EC50 competition with biotinylated mAb 39.29

## CCOC(=O)C1=C[C@@H](OC(CC)CC)[C@H](NC(C)=O)[C@@H](N)C1 [oseltamivir, oseltamivir phosphate, reference compound]
[1]; twice-daily oral 25 mg/kg for 5 days, irrespective of treatment initiation time (48 or 72 hours)
  mortality: 50%

B1: mAb 81.39 SVSH-NYP: anti-hemagglutinin monoclonal antibody; VL SEQ ID NO:117, VH SEQ ID NO:115 (antibody, V domains shown)
VH: EVQLVESGGGVVQPGRSLRLSCAASGFAFHNRAMHWVRQAPGKGLEWVALIYFDGSKQYYADSVKGRFTISRDNSKNTVFLQMNSLRPEDTAVYYCAVPGPIFGIFPPWSYFDHWGQGILVTVSS
VL: EIVLTQSPATLSVSPGERATLSCRASQSVSHNLAWYQQKPGQAPRLLVYSASTRATGIPARFSGSGSGTEFTLAISSLQSEDFAVYYCQHYTNYPPRLTFGGGSKVEIK
[2]
  in vitro neutralization of Group2 influenza A virus panel: effective at the in vitro neutralization of all influenza A virus strains tested
[3]
  in vitro neutralization of Group1 influenza A virus panel: effective at the in vitro neutralization of all influenza A virus strains tested

B2: mAb 39.18 B11: anti-hemagglutinin monoclonal antibody; VL SEQ ID NO:156, VH SEQ ID NO:154 (antibody, V domains shown)
VH: EVQLVQSGAEVKKPGSSMKVSCKASGSIFSNYGISWVRQAPGQGLEWMGGIIPIFGAANYAQKFQGRVTITADESTSTVYMEVRSLRSEDTAVYYCARRQQLYKGYYHHWGQGTLVTVSS
VL: EIVLTQSPATLSVSPGERVTLSCRASQSVANNLAWYQQKPGQSPRLLIYGASTRDTGIPARFSGSGSGTEFTLTISSLQSEDFAVYYCQQYNNWPPMYTFGQGTKLEIK
[2]
  in vitro neutralization of Group2 influenza A virus panel: not able to neutralize Group2 influenza A virus strains
[3]
  in vitro neutralization of Group1 influenza A virus panel: effective at in vitro neutralization of the entire Group1 influenza A virus panel examined

B3: mAb 36.89: anti-hemagglutinin monoclonal antibody; VL SEQ ID NO:162, VH SEQ ID NO:160 (antibody, V domains shown)
VH: QVQLVQSGAELKRPGASVKVSCKTSGYSFNNYGINWVRQAPGQGLEWMGWISAYTGNTHYAKNFEGRVTLTTDTSTSTAYMEVRSLRSDDSAVYFCARAMIQGVVTLYLRPGDYWGQGTLVTVSS
VL: DIVMTQSPSTLSASVGDRVTITCRASQSIGNWLAWYQQKPGKAPKLLIYKVSTLESGVPSRFSGSGSGTEFTLTINSLQPDDFATYYCQRYTSNSQGFTFGQGTKLEIK
[4]
  competition for binding with mAb 39.29 on Group2 H3 hemagglutinin stalk epitope: compete for binding
[5]
  competition for binding of mAb 39.29 on Group1 H1 hemagglutinin stalk: do not compete for binding
[2]
  in vitro neutralization of Group2 influenza A virus panel: able to neutralize the entire Group2 influenza A virus panel examined
[3]
  in vitro neutralization of Group1 influenza A virus panel: not able to neutralize any Group1 influenza A virus isolate tested

B4: mAb9.01F3: phage-display derived anti-hemagglutinin monoclonal antibody; VL SEQ ID NO:166, VH SEQ ID NO:164 (antibody, V domains shown)
VH: QVQLVQSGAEVKQPGASVKVSCKASGYTFNAYYIHWVRQAPGQGLEWMGWINPNFGGTHYARKFQGRVTMTRDASINTAYMELDRLISDDTAVYYCVRWRAAAVIMDQFYKMDVWGQGTLVTVSS
VL: SSELTQPPSASGTPGQRVTISCSGSTSNIGYNPVSWYQQVPGTAPKLLIYSNTERPSGVPDRFSGSKSGTSASLAISGLQSEDEADYYCAAWDDTLNGPVFGGGTKVTVL
[4]
  competition for binding with mAb 39.29 on Group2 H3 hemagglutinin stalk epitope: compete for binding
[5]
  competition for binding of mAb 39.29 on Group1 H1 hemagglutinin stalk: do not compete for binding
[2]
  in vitro neutralization of Group2 influenza A virus panel: able to neutralize the entire Group2 influenza A virus panel examined
[3]
  in vitro neutralization of Group1 influenza A virus panel: not able to neutralize any Group1 influenza A virus isolate tested

B5: mAb23.06C2: phage-display derived anti-hemagglutinin monoclonal antibody; VL SEQ ID NO:170, VH SEQ ID NO:168 (antibody, V domains shown)
VH: QVQLQESGPGLVKPSETLSLTCTVSGGLIGTGSYYWGWIRQTPGKGMEWIGSISYSGSTYYHPSLKSRVTISDDTSKNQLFLKLRSVTAADTAQYYCARYNWGIRYFDFWGRGTLVTVSS
VL: DIQLTQSPLSPPVTLGQPASISCRSSQSLLYTDGFTYLSWYHQRPGQSPRRLIYKISNRDSGVPDRFSGSGSGTDFTLKISRVEAEDVGVYYCMQATHWPLTFGEGTKVEIK
[4]
  competition for binding with mAb 39.29 on Group2 H3 hemagglutinin stalk epitope: compete for binding
[5]
  competition for binding of mAb 39.29 on Group1 H1 hemagglutinin stalk: do not compete for binding
[2]
  in vitro neutralization of Group2 influenza A virus panel: able to neutralize the entire Group2 influenza A virus panel examined
[3]
  in vitro neutralization of Group1 influenza A virus panel: not able to neutralize any Group1 influenza A virus isolate tested

B6: mAb 39.29 NCv1: anti-hemagglutinin monoclonal antibody; VL SEQ ID NO:144, VH SEQ ID NO:142 (antibody, V domains shown)
VH: QVQLVESGGGVVQPGKSPRLSCAASGPTFSSYAVHWVRQAPGKGLEWVTLISYDGANQYYADSVKGRFTISRDNSKNTVYLQMNSLRPEDTAVYYCAVPGPVFGIFPPWSYFDNWGQGILVTVSS
VL: EIVLTQSPATLSVSPGERATLSCRASQVISHNLAWYQQKPGQAPRLLIYGASTRASGIPARFSGSGSGTDYTLTITSLQPEDFAVYYCQHYSNWPPRLTFGGGTKVEIK
[6]
  IC50: 2.9 nM
[7]; in vivo
  mice protected (survival): 87.5% and 75%
[7]; iv
  minimum efficacious dose in vivo: 15 mg/kg
[8]
  in vitro neutralization of pseudotype virus expressing hemagglutinin H5: dose-dependent in vitro neutralization
[9]
  efficacy at all tested doses: very efficacious
[10]
  IC50: 35 nM
[11]
  efficacy at all tested doses: very efficacious

B7: mAb 81.39 B1C1: anti-hemagglutinin monoclonal antibody; VL SEQ ID NO:113, VH SEQ ID NO:111 (antibody, V domains shown)
VH: B1 VH with E1Q
VL: B1 VL with S30D, H31S, Y94W
[1]; in vivo, iv, 25 mg/kg
  survival: 100% and 80%

B8: mAb 81.39: anti-hemagglutinin monoclonal antibody 81.39, variant not specified in the competition ELISA (antibody, V domains shown)
VH: B1 VH
VL: B1 VL with Y94W
[4]
  competition for binding with mAb 39.29 on Group2 H3 hemagglutinin stalk epitope: compete for binding
[4]; [12]
  EC50: 4.21 nM
[5]
  competition for binding of mAb 39.29 on Group1 H1 hemagglutinin stalk: compete for binding
[5]; [12]
  EC50: 2.15 nM
